Data on 1 molecule can be found in US9290743B2, “L-aspartate oxidase variant and a method for producing quinolinate or nicotinic acid using the same” (CJ CHEILJEDANG CORP., priority 2013, dated 2016).

For this data set, the system named is L-aspartate oxidase. In words: Activity test of L-aspartate oxidase variants (H2O2, Amplex Red, absorbance at 560 nm) with NAD added. The data set is classed as biochemical, E. coli. The procedure:
After the recombinant vector pT7-nadB, pT7-nadB67, pT7-nadB67(V), pT7-nadB67(L), pT7-nadB67(I), or pT7-nadB67(H) was transformed into a tuner strain via CaCl2 method, the transformed strain was smeared on a LB-SP (yeast extract 10 g/L, NaCl 5 g/L, tryptone 10 g/L, and spectinomycin […]) plate medium, and cultured overnight at 37[…] to select spectinomycin-resistant colonies. One colony was selected from them and cultured in a LB-SP (yeast extract 10 g/L, NaCl 5 g/L, tryptone 10 g/L, spectinomycin […]) liquid medium, and then a isopropyl-1-thio-β-D-galactopyranoside (IPTG) derivative was added thereto when the growth optical density (OD) value reached to 0.4, and cultured at about 18[…] overnight. Cells including the overexpressed wild type L-aspartate oxidase and L-aspartate oxidase variants were recovered from the culture medium, followed by purification of the wild type L-aspartate oxidase and L-aspartate oxidase variants from the recovered cells by Ni-NTA spin kit (Quiagen, U.S.A). The recovered protein was 50% of a total protein, about 2% of the recovered protein was recovered as L-aspartate oxidase.
The L-aspartate oxidase converts aspartate as a substrate to iminoaspartate in the presence of an FAD as cofactor, and the imminoaspartate is converted b to oxaloacetate. Hydrogen peroxide (H2O2), that is generated through the above-described reaction, was used to identify the activity of the nadB. Absorbance at 560 nm of a reaction product of H2O2 with a product from the reaction was measured using an Amplex Red (Invitrogen, Korea) to determine the activity of the nadB. Here, NAD was added at different concentrations to create a condition for competitive inhibition to FAD so as to evaluate the resistance of L-aspartate oxidase against the feedback regulation by NAD.

B1: Wild type-nadB: His-tagged wild type E. coli L-aspartate oxidase (SEQ ID NO: 1) purified from pT7-nadB expression (protein)
chain: MNTLPEHSCDVLIIGSGAAGLSLALRLADQHQVIVLSKGPVTEGSTFYAQGGIAAVFDETDSIDSHVEDTLIAGAGICDRHAVEFVASNARSCVQWLIDQGVLFDTHIQPNGEESYHLTREGGHSHRRILHAADATGREVETTLVSKALNHPNIRVLERSNAVDLIVSDKIGLPGTRRVVGAWVWNRNKETVETCHAKAVVLATGGASKVYQYTTNPDISSGDGIAMAWRAGCRVANLEFNQFHPTALYHPQARNFLLTEALRGEGAYLKRPDGTRFMPDFDERGELAPRDIVARAIDHEMKRLGADCMFLDISHKPADFIRQHFPMIYEKLLGLGIDLTQEPVPIVPAAHYTCGGVMVDDHGRTDVEGLYAIGEVSYTGLHGANRMASNSLLECLVYGWSAAEDITRRMPYAHDISTLPPWDESRVENPDERVVIQHNWHELRLFMWDYVGIVRTTKRLERALRRITMLQQEIDEYYAHFRVSNNLLELRNLVQVAELIVRCAMMRKESRGLHFTLDYPELLTHSGPSILSPGNHYINR
modifications: His tag; amino acid sequence of nadB
B1: the Relative activity (NAD 0 mM) is listed as 100%; the Relative activity (NAD 0.05 mM) worked out at 95%; the Relative activity (NAD 0.3 mM) came to 82%; the Relative activity (NAD 0.5 mM) stood at 65%; the Relative activity (NAD 1 mM) came to 22%; the Relative activity result (NAD 1 mM, listed as wild type L-aspartate oxidase) is on record as “less than 50%”.
